According to patent US20170342107A1 (REGENTS OF THE UNIVERSITY OF MINNESOTA, published 2017):
Square brackets hold non-standard residues; d marks the D form. Bip = N[C@@H](Cc1ccc(-c2ccccc2)cc1)C(=O)O; dPhe(4-I) = N[C@H](Cc1ccc(I)cc1)C(=O)O; 2Nal = N[C@@H](Cc1ccc2ccccc2c1)C(=O)O; d2Nal = N[C@H](Cc1ccc2ccccc2c1)C(=O)O; Bta = N[C@@H](Cc1csc2ccccc12)C(=O)O; Tic = O=C(O)[C@@H]1Cc2ccccc2CN1

What was measured:
Experiment in all cases: cell-based or functional assay
[1] = target: mouse melanocortin-5 receptor (mouse, UniProt P41149 1-325)
[2] = target: mouse melanocortin-3 receptor (mouse, UniProt P33033 1-323)
[3] = target: mouse melanocortin-4 receptor (mouse, UniProt P56450 1-332)
[4] = target: mouse melanocortin-1 receptor (mouse, UniProt Q01727 1-315)
Sequence of mouse melanocortin-1 receptor (Q01727 whole entry): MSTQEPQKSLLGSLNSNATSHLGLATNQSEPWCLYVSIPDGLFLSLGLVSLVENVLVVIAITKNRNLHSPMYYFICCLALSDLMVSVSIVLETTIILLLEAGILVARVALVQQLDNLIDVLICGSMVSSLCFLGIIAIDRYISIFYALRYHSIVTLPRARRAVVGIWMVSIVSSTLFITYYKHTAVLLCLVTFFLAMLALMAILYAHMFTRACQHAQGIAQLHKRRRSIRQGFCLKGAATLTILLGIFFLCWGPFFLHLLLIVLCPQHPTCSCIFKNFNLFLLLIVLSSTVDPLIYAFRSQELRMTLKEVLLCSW

Sequence of mouse melanocortin-5 receptor (P41149 whole entry): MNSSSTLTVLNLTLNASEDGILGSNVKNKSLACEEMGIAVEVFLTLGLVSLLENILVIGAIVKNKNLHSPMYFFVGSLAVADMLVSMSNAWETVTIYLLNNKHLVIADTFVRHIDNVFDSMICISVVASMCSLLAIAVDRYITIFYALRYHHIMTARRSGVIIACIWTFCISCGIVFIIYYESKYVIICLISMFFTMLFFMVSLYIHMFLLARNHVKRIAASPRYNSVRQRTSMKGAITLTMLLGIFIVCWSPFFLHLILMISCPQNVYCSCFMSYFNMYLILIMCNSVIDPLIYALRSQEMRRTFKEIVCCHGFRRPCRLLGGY
Sequence of mouse melanocortin-4 receptor (P56450 whole entry): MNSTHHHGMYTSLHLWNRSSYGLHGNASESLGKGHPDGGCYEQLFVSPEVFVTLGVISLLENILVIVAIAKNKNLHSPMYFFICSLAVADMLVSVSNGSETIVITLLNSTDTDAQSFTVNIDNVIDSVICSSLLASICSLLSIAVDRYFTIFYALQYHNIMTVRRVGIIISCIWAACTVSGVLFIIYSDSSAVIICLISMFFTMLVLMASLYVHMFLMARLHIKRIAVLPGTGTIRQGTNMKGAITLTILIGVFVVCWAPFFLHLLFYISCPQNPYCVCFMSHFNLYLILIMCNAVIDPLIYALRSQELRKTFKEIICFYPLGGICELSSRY
Sequence of mouse melanocortin-3 receptor (P33033 whole entry): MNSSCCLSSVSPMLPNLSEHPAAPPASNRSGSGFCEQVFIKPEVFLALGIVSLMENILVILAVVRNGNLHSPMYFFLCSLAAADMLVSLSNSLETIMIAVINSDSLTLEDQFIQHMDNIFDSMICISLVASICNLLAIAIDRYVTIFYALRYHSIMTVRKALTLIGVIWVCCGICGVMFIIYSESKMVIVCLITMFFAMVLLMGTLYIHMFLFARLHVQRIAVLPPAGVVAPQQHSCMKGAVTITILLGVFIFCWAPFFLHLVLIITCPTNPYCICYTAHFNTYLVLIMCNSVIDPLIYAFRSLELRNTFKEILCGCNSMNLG

Binder	Agonist, % of NDP-MSH maximal response [1] [% @ 100 µM]	Agonist, % of NDP-MSH maximal response [2] [% @ 100 µM]	Agonist, % of NDP-MSH maximal response [3] [% @ 100 µM]	Agonist, % of NDP-MSH maximal response [4] [% @ 100 µM]
Ac-[Tic]R[dPhe(4-I)]F-NH2 (SMILES CC(=O)N1Cc2ccccc2C[C@H]1C(=O)N[C@@H](CCCNC(=N)N)C(=O)N[C@H](Cc1ccc(I)cc1)C(=O)N[C@@H](Cc1ccccc1)C(N)=O) [SKY4-48-30, Ac-Tic-Arg-(pI)DPhe-Phe-NH2]	21	–	–	–
Ac-FR[dPhe(4-I)]F-NH2 (SMILES CC(=O)N[C@@H](Cc1ccccc1)C(=O)N[C@@H](CCCNC(=N)N)C(=O)N[C@H](Cc1ccc(I)cc1)C(=O)N[C@@H](Cc1ccccc1)C(N)=O) [SKY4-48-31, Ac-Phe-Arg-(pI)DPhe-Phe-NH2]	52	50	–	–
Ac-[d2Nal]R[dPhe(4-I)][Bta]-NH2 [SKY4-48-17, Ac-DNal(2')-Arg-(pI)DPhe-3Bal-NH2]	–	–	45	–
Ac-HR[dPhe(4-I)][Bip]-NH2 [SKY4-48-3, Ac-His-Arg-(pI)DPhe-Bip-NH2]	–	53	43	–
Ac-RR[dPhe(4-I)][Bip]-NH2 [SKY4-48-2, Ac-Arg-Arg-(pI)DPhe-Bip-NH2]	–	45	32	44
Ac-[Bta]R[dPhe(4-I)][Bip]-NH2 [SKY4-48-5, Ac-3Bal-Arg-(pI)DPhe-Bip-NH2]	–	51	35	–
Ac-[Bta]R[dPhe(4-I)][Tic]-NH2 [SKY4-48-21, Ac-3Bal-Arg-(pI)DPhe-Tic-NH2]	–	–	37	–
Ac-[Bip]R[dPhe(4-I)][Bip]-NH2 [SKY4-48-4, Ac-Bip-Arg-(pI)DPhe-Bip-NH2]	–	–	24	–
Ac-HR[dPhe(4-I)][2Nal]-NH2 [SKY4-48-35, Ac-His-Arg-(pI)DPhe-Nal(2')-NH2]	–	57	35	–
Ac-[Bip]R[dPhe(4-I)][2Nal]-NH2 [SKY4-48-36, Ac-Bip-Arg-(pI)DPhe-Nal(2')-NH2]	21	–	–	23
Ac-[Tic]R[dPhe(4-I)][2Nal]-NH2 [SKY4-48-38, Ac-Tic-Arg-(pI)DPhe-Nal(2')-NH2]	48	–	–	66
Ac-[Bip]R[dPhe(4-I)]F-NH2 (SMILES CC(=O)N[C@@H](Cc1ccc(-c2ccccc2)cc1)C(=O)N[C@@H](CCCNC(=N)N)C(=O)N[C@H](Cc1ccc(I)cc1)C(=O)N[C@@H](Cc1ccccc1)C(N)=O) [SKY4-48-28, Ac-Bip-Arg-(pI)DPhe-Phe-NH2]	69	77	–	–
Ac-[2Nal]R[dPhe(4-I)][Tic]-NH2 [SKY4-48-24, Ac-Nal(2')-Arg-(pI)DPhe-Tic-NH2]	–	–	33	–
Ac-[Tic]R[dPhe(4-I)][Bta]-NH2 [SKY4-48-14, Ac-Tic-Arg-(pI)DPhe-3Bal-NH2]	–	–	–	38
Ac-[2Nal]R[dPhe(4-I)]F-NH2 (SMILES CC(=O)N[C@@H](Cc1ccc2ccccc2c1)C(=O)N[C@@H](CCCNC(=N)N)C(=O)N[C@H](Cc1ccc(I)cc1)C(=O)N[C@@H](Cc1ccccc1)C(N)=O) [SKY4-48-32, Ac-Nal(2')-Arg-(pI)DPhe-Phe-NH2]	49	42	–	–
Ac-FR[dPhe(4-I)][Bip]-NH2 [SKY4-48-7, Ac-Phe-Arg-(pI)DPhe-Bip-NH2]	–	30	–	67
Ac-RR[dPhe(4-I)][2Nal]-NH2 [SKY4-48-34, Ac-Arg-Arg-(pI)DPhe-Nal(2')-NH2]	–	51	–	–
Ac-[Bta]R[dPhe(4-I)][2Nal]-NH2 [SKY4-48-37, Ac-3Bal-Arg-(pI)DPhe-Nal(2')-NH2]	50	–	–	–

Next, values leading:

Agonist, % of NDP-MSH maximal response [1] [% @ 100 µM]	Agonist, % of NDP-MSH maximal response [2] [% @ 100 µM]	Agonist, % of NDP-MSH maximal response [3] [% @ 100 µM]	Agonist, % of NDP-MSH maximal response [4] [% @ 100 µM]	Binder
74	42	33	–	Ac-[Tic]R[dPhe(4-I)][d2Nal]-NH2 [SKY4-48-46, Ac-Tic-Arg-(pI)DPhe-DNal(2')-NH2]
35	37	–	–	Ac-[Bta]R[dPhe(4-I)]F-NH2 (SMILES CC(=O)N[C@@H](Cc1csc2ccccc12)C(=O)N[C@@H](CCCNC(=N)N)C(=O)N[C@H](Cc1ccc(I)cc1)C(=O)N[C@@H](Cc1ccccc1)C(N)=O) [SKY5-146-4, Ac-3Bal-Arg-(pI)DPhe-Phe-NH2]
39	22	–	–	Ac-FR[dPhe(4-I)][d2Nal]-NH2 [SKY4-48-47, Ac-Phe-Arg-(pI)DPhe-DNal(2')-NH2]
55	32	–	–	Ac-[Bip]R[dPhe(4-I)][d2Nal]-NH2 [SKY4-48-44, Ac-Bip-Arg-(pI)DPhe-DNal(2')-NH2]
–	–	36	–	Ac-[Tic]R[dPhe(4-I)][Tic]-NH2 [SKY6-24-1, Ac-Tic-Arg-(pI)DPhe-Tic-NH2]
45	39	–	–	Ac-[2Nal]R[dPhe(4-I)][2Nal]-NH2 [SKY4-48-40, Ac-Nal(2')-Arg-(pI)DPhe-Nal(2')-NH2]
–	30	42	–	Ac-[d2Nal]R[dPhe(4-I)][Bip]-NH2 [SKY5-146-2, Ac-DNal(2')-Arg-(pI)DPhe-Bip-NH2]
61	44	–	–	Ac-FR[dPhe(4-I)][2Nal]-NH2 [SKY4-48-39, Ac-Phe-Arg-(pI)DPhe-Nal(2')-NH2]
47	–	50	–	Ac-HR[dPhe(4-I)][d2Nal]-NH2 [SKY4-48-43, Ac-His-Arg-(pI)DPhe-DNal(2')-NH2]
40	43	39	–	Ac-[d2Nal]R[dPhe(4-I)][2Nal]-NH2 [SKY5-146-5, Ac-DNal(2')-Arg-(pI)DPhe-Nal(2')-NH2]
40	31	–	53	Ac-[2Nal]R[dPhe(4-I)][d2Nal]-NH2 [SKY4-48-48, Ac-Nal(2')-Arg-(pI)DPhe-DNal(2')-NH2]
–	–	–	39	Ac-[Tic]R[dPhe(4-I)][Bip]-NH2 [SKY5-146-1, Ac-Tic-Arg-(pI)DPhe-Bip-NH2]
43	40	37	–	Ac-[d2Nal]R[dPhe(4-I)][d2Nal]-NH2 [SKY4-48-49, Ac-DNal(2')-Arg-(pI)DPhe-DNal(2')-NH2]
